# Test results taken from the supplement of paper PMC9170038.
# System: MS2 coat protein
# Assay: apparent KD of MS2 coat protein; higher = weaker reporter binding
# Settings: Eterna round: R107
# Procedure: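 RNA-MaP round R107: designed RNA switches with theophylline, tryptophan, arginine or FMN aptamers are transcribed on-chip within common flanks. They are titrated with SNAP-549-labelled MS2 coat protein in RNA-MaP buffer (100 mM Tris pH 7.5, 80 mM KCl, 4 mM MgCl2), without ligand or with the indicated ligand. Median apparent KD per design.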
# [1] = input ligand: theophylline 20 uM
# [2] = input ligand: tryptophan 2.4 mM
# [3] = input ligand: theophylline 2 mM
Sequence,apparent KD of MS2 coat protein (input ligand: arginine 13.2 mM) [nM],apparent KD of MS2 coat protein [1] [nM],apparent KD of MS2 coat protein [2] [nM],apparent KD of MS2 coat protein (input ligand: none) [nM],apparent KD of MS2 coat protein [3] [nM]
UGUAACAUGAGGAUCACCCAUGUGAGUGAUACCAGACUAGUAUUAGUCCCUUGGCAGCACGUUGGGCGAGUGUAUAGUCUAUGCG [Same State - Theophylline A (Freestyle 14)],89.6,113,80.3,,
ACAUGAGGAUCACCCAUGUGCAGAACGGAUACCAGCGUGCUGGUACGCCCUUGGCAGCCGGACAUGAGGAUCACCCAUGUGUGGA [Exclusion Theophylline A GF28],32.1,55.7,66,42.1,164
UCUUUCUAUUGUGAUACCAGACGUACAUGAGGAUCACCCAUGUUUCAUUCUUGUUUUAAAGUCCCUUGGCAGCACUAUUUGUUCG [JR_Nu_ExcTheophyB_Sub028],19.6,23.9,15.9,,
GUUGGAUGCUCGGCCGCCACUGAGAGAGUCAUGUGAACAUGAGGAUCACCCAUGUAAUAUAUAUACAGGACCGGGAGUGUUGUAA [4.J],19.7,50.6,13.3,19.5,25
AACAUGAGGAUCACCCAUGUGUCCUCGAAACGAGGACCGGUACGGCCGCCACUCGAAGCAUGUUGACGAAAAGUCAGCAUGCAAA [Mat - Exclusion - Trytophan A - D14],96.4,292,,,353
UACUUGCUGACGGCCGCCACUAGAACAUGAGGAUCACCCAUGUACCCGGUCCUACAUGGGAUGACUAGGACCGGGUCAGCAAGAU [(Trp1)-(Ms2)-(T)'-(M)'-(Trp2)_Design3],39.6,72.4,,,68.5
GGGCGCUAUCCCGCGAGGGAUAGCGUUCGGCGAGGACCGGUACGGCCGCCACUCGAACGAGUGGGUACAUGAGGAUCACCCAUGU [Faa],23.1,39.6,30.6,28,36.3
ACGAUGCGACAUGAGGAUCACCCAUGUGAUACCAGCCUGGAAACAGGCCCUUGGCAGCACAAAUACUCCAGAAACGCAUCGAAUA [MAT - Exclusion Theophlline A - Mod of Eli - D3],96.3,356,348,,
CCUAUGCAGUCGGCCGCCACUGUACAUGAGGAUCACCCAUGUUCCAAAAUAAAAGGAACUGAAAUCAGGACCGGGACUGUAUAGG [Ex Tryptophan B 1],29.4,37.2,32.6,33.3,39
UGGGUACAUGAGGAUCACCCAUGUACUGAAGGAGCGAGAAUUAUCUCAGGUAGGUCGCAGACAUGAGGAUCACCCAUGUAGUGGG [Exclusion Arginine A GF 13],15,22.7,17.7,18,20
GAUUGCAUCGAUUCUCCACUCGCACCUGAUACCAGCGAUAGAAUUCGCCCUUGGCAGCAGUACACAUGAGGAUCACCCAUGUUAU [theeternabot_exclusion_MS2_Theo_A_20],25.5,42.4,35,,
AGACUGUCUUCGGACAGUCCGGACAGCCCGCGAGGACCGGUACGGCCGCCACUCGCACGAGGAUCACCCGUGUGAGGCUGUCCGA [Omei Tryp A Exc A v2],9.87,17.2,14.5,13.4,16.4
AUAUAUAUAUAGAAAUAUAUAUAUAUGUAACGAGGACCGGUACGGCCGCCACUCGUGCCGGUGAUAACAUGAGGAUCACCCAUGU [Ex_TrypA - Every engine approves!],19.8,20.9,20,16,20.3
AUUAUCGUAGGUUAAAGUUUAGAAACUGAAGGAGCGUGGUAUUACACAGGUAGGUCGCAGAUUUUACAUGAGGAUCACCCAUGUU [JR_ExcArginiA_Sub010],21.3,26.3,21.5,22.4,25.1
ACCUGUACGAAAAGUGCAGGACACGGAAUACGAGGACCGGUACGGCCGCCACUCGGAAUAACCUGAGGAUCACCCUGGUACCGUG [TrypAS 10 #AlternativeMS2 #Zipper #StaticStem],25.8,27.5,19.2,18.8,26.7
ACAUGAGGAUCACCCAUGUACAUAAGGGAAGGAGCGCGGUGGAACGCAGGUAGGUCGCCCAUAAUAACAAUAAAUAAAUUCAUGU [#04 Same State - Arginine A],14.7,23.6,16.5,14.7,17.5
CCUCAAUCGUCGGCCGCCACUGGAUCAUGCGGAUACAUGAGGAUCACCCAUGUGGGUGUGGUACGCAGGACCGGGACAAGACCCG [#15 Same State - Tryptophan B],164,579,,,1030
ACAUGAGGAUCACCCAUGUAAUAAUCAGAAGGAGCGUGGAAUAACACAGGUAGGUCGCUGAUGUUUGGUUAAAAUUAUUCGUGAA [JR_ExcArginiA_Sub001],12.2,16.6,14,13.1,14

Sequence,apparent KD of MS2 coat protein (input ligand: arginine 13.2 mM) [nM],apparent KD of MS2 coat protein [1] [nM],apparent KD of MS2 coat protein [2] [nM],apparent KD of MS2 coat protein (input ligand: none) [nM],apparent KD of MS2 coat protein [3] [nM]
CUAAGAGUAGGAAGGAGCGACAUGAGGAUCACCCAUGUGGCUCUCAUGGCCCGGGUCUUAUGUCAGGUAGGUCGCCUACUGUUUA [Solave],13.6,21.9,14.1,14.4,17.1
AUAAAUAAUAAAUAUAAUAAAGUGGGUGAACGAGGACCGGUACGGCCGCCACUCGGACAUGAGGAUCACCCAUGUCCAUGUGAAA [AstrosExtTry#3],9.94,19.1,40.1,17.3,19.3
CGUAUGUAGACGGCCGCCACUGGAACCUGAGGAUCACCCAGGUACAGGGUGGGUAACUCGAGAGUCAGGACCGGGUCUACAUACA [Tryp B Ex t3],19.4,65.1,38.6,42,64.3
GUUUUAUCAAAAGAUGAAACAGUGGGUGAACGAGGACCGGUACGGCCGCCACUCGGACAUGAGGAUCACCCAUGUCCAUGUGAAA [AstrosExyTryA#13],15.4,17.1,54.1,18.4,21.1
GUUUUGGGAUCGGCCGCCACUACAUGAGGAUCACCCAUGUGGACAAAUAGGGUUUUUAAGCUCGGUAGGACCGGGAUUCGAACAU [Abeis],15.4,19,,,17.5
UGUUUGGUGCGCGAGUGUUGGAUAAUUGAUACCAGUGUAGAAGAGCGCCCUUGGCAGCGAAUCCUAACAUGAGGAUCACCCAUGU [5.W],37.6,54.7,40.3,,
UGUUUGGUGCGCGAGUGUUGGAUAAUUGAUACCAGUGUAGAAGUGCGCCCUUGGCAGCGAAUCCUAACAUGAGGAUCACCCAUGU [5.X],49.1,52.3,39,,
ACAUGAGGAUCACCCAUGUGGCGACUUGAUACCAGACCCGCACUAGUCCCUUGGCAGCAACUACGUGAGGGACACCCAUGUGAAG,17.6,41.6,21.6,25.8,38.2
UAUCCACAUGAGGAUCACCCAUGUAGGGAAGGAGCGGUGAUUUCACCAGGUAGGUCGCCUUGCUGAGGGUUGCCGGUGGAAUCGU [Exclusion - Arginine A (Freestyle 33)],12.5,14.8,16.2,15.7,13.1
GACCGAUUAUAGUGCGAUUCUCUUGUGGAAGGAGCGCAGAGGACUGCAGGUAGGUCGCCACAUGAGGAUCACCCAUGUCAGGAUA [Esxebiat],65.6,89.6,10.6,183,708
GCACCAGGUACGGAUACCAGACGUUGCCAAACAGGGUGACAUGAGGAUCACCCAUGUACUGUCCCUUGGCAGCCGUACCUGGUGC [EThB NP+V+V2 #4 +-Same Structure],20.2,53,22.6,,
UGGCAGUACAUGGGUUACUGCCAAGGUGAUACCAGCAUCGAAAGAUGCCCUUGGCAGCACCAACAUGAGGAUCACCCAUGUAAUA [(MT)''-(M)'-(T')-(Theo)-(Ms2)_Design1/22_8],68.5,210,247,234,53.9
GGACAUGCAGGAAGGAGCGACACAGCAGAAACUGCAAAUCCUCCACACGAGGAUCACCCGUGUCAGGUAGGUCGCCUGCAUGUCG [ArgXB 14 #Zipper #MS2Left #StaticStem #Blueprint],76.7,99.1,80.2,89.5,126
ACCUACACGGAAACGUGUAGAAGUAAUGAUACCAGCAUGGAAACAUGCCCUUGGCAGCGUUACAUGAGGAUCACCCAUGUAUGUU [#01 Exclusion-TheophyllineA],16.4,19.9,15.4,,
ACAUUUAACUGAAGGAGCGUGAUAAACAUGAGGAUCACCCAUGUACCACAGAUUUUCAGAUCACAGGUAGGUCGCAGACUAAUGA [JR_ExcArginiB_Sub014],9.29,14.1,11.5,11.1,11.3
CAGUCUCUAGCGGCCGCCACUGUUCUGCUGGUGCUGCUGAACGAACAUGAGGAUCACCCAUGUCUCAGGACCGGGCUUCAGACUC [theeternabot_sameState_MS2_Trp_B_44],22.4,30.4,,,33.3
UUAUUUAACGGAAGGAGCGCGGAAAUUAAGGUGGGUAAACAUGAGGAUCACCCAUGUAAUCCGCAGGUAGGUCGCCGAUAUUUAU [#24 Exclusion - Arginine B],86.1,136,112,156,119
GUUAUGGACCUGGAUACCAGCUGGUACGAGGGCGGUCUACAUGAGGAUCACCCAUGUGUCAGCCCUUGGCAGCCAGCAACCCGCU [Raquleer],10,12.6,9.92,9.39,11.9
